Test results as given in US6750197B1, “Activators of endothelial nitric oxide synthase” (Rensselaer Polytechnic Institute, priority 1996, dated 2004).

Assays:
NNOS [1] = molecular target: T1, NNOS (Rattus norvegicus, UniProt P29476); test: CAM binding: radiolabeled CAM trapped on a membrane by NNOS adhesion; conditions: no peptide: 774 ± 40
Procedure: (§1) JX series polypeptides are approximately 30-mers derived from ENOS and NNOS inhibitory polypeptides. B058 series are shorter (6-mers to 15-mers) peptides derived from flanking loops or from shorter segments of inhibitory polypeptides. CAM binding data represents counts from radiolabeled CAM trapped on a membrane by NNOS adhesion. INOS activity was assayed by measuring oxidation of ferrous myoglobin by product NO.

INOS = INOS (Rattus norvegicus, UniProt Q06518); test: INOS activity by oxidation of ferrous myoglobin by product NO; format: biochemical; parameters: unit not given here; conditions: peptide 0.1 mg/ml; no peptide: 14.9 ± .56
Procedure: as §1

recombinant bovine ENOS = molecular target: T2, recombinant bovine ENOS (Bos taurus, UniProt P29473); test: NOS activity, kinetic 96-well microtiter plate assay, NADPH consumption; format: biochemical; conditions: peptide 100 μg/ml; mean ± SEM, triplicate
T2 construct: made in house; host or cells: E. coli
T2 sequence (P29473 1-1205): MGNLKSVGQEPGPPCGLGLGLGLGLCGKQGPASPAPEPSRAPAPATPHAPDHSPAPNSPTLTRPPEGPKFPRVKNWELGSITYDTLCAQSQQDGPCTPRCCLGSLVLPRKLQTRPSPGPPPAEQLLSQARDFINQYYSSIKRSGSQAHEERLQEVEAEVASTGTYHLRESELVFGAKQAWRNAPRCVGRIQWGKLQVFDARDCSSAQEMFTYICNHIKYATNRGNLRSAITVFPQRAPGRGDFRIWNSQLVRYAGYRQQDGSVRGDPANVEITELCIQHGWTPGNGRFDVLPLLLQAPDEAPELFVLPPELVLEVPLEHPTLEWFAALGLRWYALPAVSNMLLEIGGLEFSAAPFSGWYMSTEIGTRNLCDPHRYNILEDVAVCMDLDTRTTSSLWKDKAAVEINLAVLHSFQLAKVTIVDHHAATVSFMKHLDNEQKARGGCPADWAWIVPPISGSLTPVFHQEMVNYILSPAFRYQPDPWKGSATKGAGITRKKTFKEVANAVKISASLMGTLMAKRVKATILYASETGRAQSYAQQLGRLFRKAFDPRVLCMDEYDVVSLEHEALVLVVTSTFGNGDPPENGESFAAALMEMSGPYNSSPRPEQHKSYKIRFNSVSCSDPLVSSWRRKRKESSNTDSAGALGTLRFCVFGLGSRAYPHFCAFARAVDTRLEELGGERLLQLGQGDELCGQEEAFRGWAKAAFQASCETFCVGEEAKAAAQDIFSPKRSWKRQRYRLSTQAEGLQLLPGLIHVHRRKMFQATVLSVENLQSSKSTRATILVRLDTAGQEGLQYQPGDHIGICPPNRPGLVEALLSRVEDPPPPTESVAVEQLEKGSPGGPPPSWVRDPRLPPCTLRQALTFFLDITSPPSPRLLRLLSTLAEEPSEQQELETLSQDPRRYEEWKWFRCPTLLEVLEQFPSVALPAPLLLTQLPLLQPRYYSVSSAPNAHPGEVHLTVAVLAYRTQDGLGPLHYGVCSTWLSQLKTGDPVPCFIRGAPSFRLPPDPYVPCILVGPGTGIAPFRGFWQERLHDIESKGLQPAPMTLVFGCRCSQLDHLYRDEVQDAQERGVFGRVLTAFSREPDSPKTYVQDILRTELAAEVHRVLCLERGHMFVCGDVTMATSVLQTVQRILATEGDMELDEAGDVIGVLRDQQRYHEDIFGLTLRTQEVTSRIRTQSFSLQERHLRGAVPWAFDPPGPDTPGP
Procedure: (§2) NOS activity measurements were performed using recombinant rat NNOS (purified from overexpressing HEK293 cells), recombinant bovine ENOS (purified from overexpressing E. coli) or native INOS (from immunostimulant-activated rat aortic smooth muscle cells). Activity was determined with 1-20 pmole of NOS using a kinetic 96-well microtiter plate assay based on the kinetics of NADPH consumption (NNOS and ENOS) or Fe^2+-myoglobin oxidation. Radioligand binding was performed after incubation of 1-2 pmole of NOS for 15 minutes at 23° C. with either Bolton-Hunter labelled [125I]-calmodulin (1 nM) or [3H]-N-nitro-L-arginine (200 pM) and the indicated peptides. Values are means ±SEM of triplicate determinations.

recombinant rat NNOS = molecular target: T3, recombinant rat NNOS (Rattus norvegicus, UniProt P29476); test: as above; format: biochemical; conditions: peptide 100 μg/ml; mean ± SEM, triplicate
T3 construct: made in house; host or cells: HEK293 cells
T3 sequence (P29476 whole entry): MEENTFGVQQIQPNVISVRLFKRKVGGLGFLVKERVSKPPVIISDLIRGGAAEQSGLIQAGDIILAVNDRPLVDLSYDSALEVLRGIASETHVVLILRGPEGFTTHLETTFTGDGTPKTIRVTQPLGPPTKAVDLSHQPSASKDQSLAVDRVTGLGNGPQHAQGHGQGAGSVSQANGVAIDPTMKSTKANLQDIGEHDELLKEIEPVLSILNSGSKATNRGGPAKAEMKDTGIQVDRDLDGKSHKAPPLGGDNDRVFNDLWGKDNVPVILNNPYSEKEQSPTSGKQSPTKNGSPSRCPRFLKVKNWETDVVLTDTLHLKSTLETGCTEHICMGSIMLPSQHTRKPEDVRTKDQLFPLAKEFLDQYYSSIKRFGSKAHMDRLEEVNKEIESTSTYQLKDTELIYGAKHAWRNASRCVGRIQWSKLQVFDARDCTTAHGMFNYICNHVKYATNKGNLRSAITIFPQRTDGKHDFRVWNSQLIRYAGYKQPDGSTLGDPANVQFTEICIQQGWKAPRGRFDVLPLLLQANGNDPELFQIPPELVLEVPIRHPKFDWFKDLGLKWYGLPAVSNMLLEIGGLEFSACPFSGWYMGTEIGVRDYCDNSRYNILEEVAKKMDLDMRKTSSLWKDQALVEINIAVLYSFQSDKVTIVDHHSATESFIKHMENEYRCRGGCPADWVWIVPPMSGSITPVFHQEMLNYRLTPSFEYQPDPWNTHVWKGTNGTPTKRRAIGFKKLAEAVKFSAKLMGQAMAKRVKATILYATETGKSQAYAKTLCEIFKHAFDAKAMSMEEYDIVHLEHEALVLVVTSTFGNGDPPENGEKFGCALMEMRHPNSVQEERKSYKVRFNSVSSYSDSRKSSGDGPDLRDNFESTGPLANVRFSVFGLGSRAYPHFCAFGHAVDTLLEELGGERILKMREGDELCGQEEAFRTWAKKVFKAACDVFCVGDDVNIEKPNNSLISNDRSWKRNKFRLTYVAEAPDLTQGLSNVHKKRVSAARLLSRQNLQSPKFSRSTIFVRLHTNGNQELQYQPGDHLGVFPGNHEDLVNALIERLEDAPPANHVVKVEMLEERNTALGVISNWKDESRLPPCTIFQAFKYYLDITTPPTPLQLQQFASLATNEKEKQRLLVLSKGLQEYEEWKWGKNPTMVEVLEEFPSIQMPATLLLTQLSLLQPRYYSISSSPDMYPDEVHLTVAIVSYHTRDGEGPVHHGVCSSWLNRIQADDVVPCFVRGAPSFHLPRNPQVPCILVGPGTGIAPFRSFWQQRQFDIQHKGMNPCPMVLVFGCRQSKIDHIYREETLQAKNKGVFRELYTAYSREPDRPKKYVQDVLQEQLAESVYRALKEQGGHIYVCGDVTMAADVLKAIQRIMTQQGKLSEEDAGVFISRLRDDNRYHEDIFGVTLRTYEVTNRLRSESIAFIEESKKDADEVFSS
Procedure: as §2

[2] = molecular target: T4, native INOS (from immunostimulant-activated rat aortic smooth muscle cells) (Rattus norvegicus, UniProt Q06518); test: NOS activity, kinetic 96-well microtiter plate assay, Fe2+-myoglobin oxidation; format: biochemical; conditions: peptide 100 μg/ml; mean ± SEM, triplicate
T4 construct: endogenous in cells
Procedure: as §2

NOS [3] = test: Radioligand binding of [3H]-N-nitro-L-arginine to NOS; parameters: scale not given here; conditions: peptide 100 μg/ml; ligand 200 pM, 15 minutes at 23° C.; mean ± SEM
Procedure: as §2

NOS [4] = test: Radioligand binding of [125I]-calmodulin to NOS; parameters: scale not given here; conditions: peptide 100 μg/ml; ligand 1 nM, 15 minutes at 23° C.; mean ± SEM
Procedure: as §2

ENOS = molecular target: T5, ENOS (Bos taurus, UniProt P29473); test: Effects on calmodulin binding (Example 3), ENOS
T5 sequence (P29473 2-1205): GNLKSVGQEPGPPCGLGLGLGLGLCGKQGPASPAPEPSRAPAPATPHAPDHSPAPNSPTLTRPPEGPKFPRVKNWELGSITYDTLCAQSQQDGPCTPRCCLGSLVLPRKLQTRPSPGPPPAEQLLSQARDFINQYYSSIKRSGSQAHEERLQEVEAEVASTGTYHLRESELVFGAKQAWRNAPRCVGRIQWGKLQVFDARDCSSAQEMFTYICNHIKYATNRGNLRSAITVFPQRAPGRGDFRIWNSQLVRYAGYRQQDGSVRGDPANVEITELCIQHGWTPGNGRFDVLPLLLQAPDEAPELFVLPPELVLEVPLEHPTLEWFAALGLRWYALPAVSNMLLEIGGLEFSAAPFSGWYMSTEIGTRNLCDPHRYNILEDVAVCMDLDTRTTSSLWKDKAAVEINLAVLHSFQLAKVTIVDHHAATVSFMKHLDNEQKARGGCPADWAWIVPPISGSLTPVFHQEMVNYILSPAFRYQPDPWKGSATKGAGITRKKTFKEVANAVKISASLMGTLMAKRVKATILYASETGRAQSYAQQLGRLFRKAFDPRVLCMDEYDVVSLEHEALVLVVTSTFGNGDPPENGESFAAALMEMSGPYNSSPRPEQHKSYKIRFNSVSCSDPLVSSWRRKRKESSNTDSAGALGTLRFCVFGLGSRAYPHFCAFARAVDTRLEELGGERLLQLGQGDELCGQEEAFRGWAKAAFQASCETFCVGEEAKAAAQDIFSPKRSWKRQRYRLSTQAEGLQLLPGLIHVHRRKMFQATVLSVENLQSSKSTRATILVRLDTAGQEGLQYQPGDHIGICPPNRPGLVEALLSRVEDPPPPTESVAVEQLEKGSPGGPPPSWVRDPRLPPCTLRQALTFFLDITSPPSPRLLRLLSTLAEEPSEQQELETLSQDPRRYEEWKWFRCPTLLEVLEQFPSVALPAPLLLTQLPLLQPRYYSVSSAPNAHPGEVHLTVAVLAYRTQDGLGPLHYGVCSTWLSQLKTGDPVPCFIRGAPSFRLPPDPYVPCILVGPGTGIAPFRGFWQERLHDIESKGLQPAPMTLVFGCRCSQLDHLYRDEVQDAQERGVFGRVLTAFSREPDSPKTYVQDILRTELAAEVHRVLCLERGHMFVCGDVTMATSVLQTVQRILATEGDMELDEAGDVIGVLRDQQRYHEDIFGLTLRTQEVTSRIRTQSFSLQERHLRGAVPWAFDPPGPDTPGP
From the text: (§3) In addition to the inhibition of enzyme activity, it is possible to modulate CAM binding to NOS with synthetic homologs of the control site elements. The relationship between enzyme inhibition and CAM binding in the presence of control site elements can be complex. In other systems, antibodies to inhibitory elements sometimes induce partial CAM independent activation, while preventing CAM dependent activation. It is important to remember that CAM binding is only a means to displace the inhibitor.
(§4) While a number of the polypeptides could modulate CAM binding, the series containing the RRKRK (SEQ ID NO: 10) motif was the most instructive. […] CAM binding was decreased almost to background levels, with effects seen at the 10 uM level.

NNOS [5] = molecular target: T1, NNOS; test: Effects on calmodulin binding (Example 3), NNOS
From the text: as §3, §4

T1 sequence (P29476 whole entry): as the sequence (P29476 whole entry) above

“SSWRRKRKESS [BO58-08, 13; b114 cites it by residues 4-11]” was tested, and the “NNOS CAM Binding” value (NNOS [1]) was 152 ± 26 counts, the “INOS Activity 0.1 mg/ml” value (INOS) was 14.5 ± .70 and the “NOS Activity (% of control) ENOS” value (recombinant bovine ENOS) was 27.7 ± 2.0 % of control. The “NOS Activity (% of control) NNOS” value (recombinant rat NNOS) was 19.1 ± 0.9 % of control, the “NOS Activity (% of control) INOS” value [2] was 92.1 ± 1.3 % of control and the “Ligand binding to NOS [3H]-NHA” value (NOS [3]) was 120.7 ± 12.7. For the same sequence, the “Ligand binding to NOS [125I]-CAM” value (NOS [4]) was 0.0 ± 0.5, the “effect on CAM binding to ENOS (in words)” value (ENOS) was “potent CAM antagonist” and the “level at which effects on CAM binding are seen” value (ENOS; ENOS) was 10 µM. The “effect on CAM binding to NNOS (in words)” value (NNOS [5]) was “potent CAM antagonist” and the “level at which effects on CAM binding are seen” value (NNOS [5]; NNOS) was 10 µM.
